Kd data for one molecule are collected here from publication PMC10755736 (2023).

Non-standard residues stand in square brackets, D forms with d. No end group written: not given here. pY = N[C@@H](Cc1ccc(OP(=O)(O)O)cc1)C(=O)O

In this experiment the target is Nck adaptor protein (Nck1), recombinant (UniProt P16333 1-377). In words: MST.

Regarding EEHI[pY]DEVAAD [peptide Y474 (pY-containing Tir peptide)], the Kd (usually the constant that tells how readily two partners part at equilibrium) turned out to be 76.4 nM.
